From the RNAGym collection of RNA variant scans (doi:10.7554/elife.80360) come the findings set out here.

Sequences and labels used below:
B1: Twister Ribozyme (parent)
chain: AACACUGCCAAUGCCGGUCCCAAGCCCGGAUAAAAGUGGAGGGGGCGG

The variants in this data set derive from B1. Description: self-cleavage, relative activity (ratio to wild type); higher = more cleavage; co-transcriptional.
Take A10G C26G: the self-cleavage worked out at 0.354.

As for C21A C46U, the self-cleavage amounted to 0.13.

Regarding G36A G38U, the self-cleavage was 0.193.

Turning to G13A G17A, the self-cleavage is 0.121.

Take A1U G48U: the self-cleavage worked out at 0.0644.

Turning to G28U G36C, the self-cleavage was determined as 0.232.

Take C26A G47A: the self-cleavage is 0.142.

As to C5U G13U, the self-cleavage came out at 0.157.

As to G13C G47C, the self-cleavage was 0.179.

Take A40U G41A: the self-cleavage came to 0.142.

On to G13U G38A, for which the self-cleavage amounted to 0.226.

As to A2U C25G, the self-cleavage is 0.0728.

As to G29C A34C, the self-cleavage was 0.148.

Take G29C A34G: the self-cleavage was 0.214.

Take C20A A30U: the self-cleavage stood at 0.175.

In the case of A32U A33C, the self-cleavage amounted to 0.895.

Regarding G24A G47A, the self-cleavage was 0.096.

Turning to C9G A32C, the self-cleavage was 0.195.

On to C9U A40U, for which the self-cleavage came out at 0.162.

In the case of C9G C19A, the self-cleavage is 0.0927.

As for U6C C21G, the self-cleavage came to 0.109.

As for A10U G38C, the self-cleavage came out at 0.933.

A35U G42A: the self-cleavage was 0.376.

Regarding A10U C21G, the self-cleavage came to 0.126.

C8U G44U: the self-cleavage was found to be 0.603.

In the case of A11U G48A, the self-cleavage is 0.951.

With C15A A23C, the self-cleavage was 0.0415.

For A22U C26G, the self-cleavage came out at 0.0767.

On to U6A A22G, for which the self-cleavage worked out at 0.0598.

U18G U31C: the self-cleavage came to 0.106.

As to G28A G42U, the self-cleavage was determined as 0.261.

For the variant A23U G38C, the self-cleavage worked out at 0.499.

As to G16U C26A, the self-cleavage came out at 0.45.

A22U G24U: the self-cleavage amounted to 0.11.

With U37G G41C, the self-cleavage was found to be 0.113.

In the case of U37G G41U, the self-cleavage came to 0.145.

Regarding A40C G47A, the self-cleavage came out at 0.19.

For the variant U18C G29A, the self-cleavage stood at 0.275.

Regarding G7U A30G, the self-cleavage was 0.163.

As for C3G A35G, the self-cleavage was found to be 0.317.

Take A22U G44A: the self-cleavage is 0.788.

With A2G G47A, the self-cleavage was determined as 0.232.

A23U A33G: the self-cleavage came out at 0.18.

For the variant A2C C46G, the self-cleavage was 0.0474.

Consider C14U G47U, for which the self-cleavage worked out at 1.

Turning to A2U A30U, the self-cleavage is 0.713.

Regarding A32C G44A, the self-cleavage came to 0.881.

As to C25G G36U, the self-cleavage was 0.103.

In the case of G13A C27U, the self-cleavage came to 0.482.

Take G29C G45A: the self-cleavage was determined as 0.667.

On to A2C G24A, for which the self-cleavage amounted to 0.0674.

For G28U A33U, the self-cleavage came to 0.833.

Regarding U6C A32U, the self-cleavage worked out at 0.488.

C3U C26G: the self-cleavage is 0.0758.

Take G16A U31G: the self-cleavage stood at 0.996.

Consider C3A C25A, for which the self-cleavage turned out to be 0.0581.

As for C9G G42U, the self-cleavage worked out at 0.119.

For A10C G13C, the self-cleavage is 0.408.

For the variant A40C G44U, the self-cleavage worked out at 0.296.

Regarding A11G C21A, the self-cleavage came to 0.107.

On to C8G G24U, for which the self-cleavage was 0.747.

Take G39C G41C: the self-cleavage turned out to be 0.112.

A1C U6C: the self-cleavage amounted to 0.147.

Consider C3G C5A, for which the self-cleavage was 0.117.

On to C5A A11U, for which the self-cleavage was found to be 0.351.

For the variant C14G G47U, the self-cleavage worked out at 0.0804.

A10G C46U: the self-cleavage is 1.02.

Turning to G13C A34C, the self-cleavage came out at 0.0766.

With G17C, the self-cleavage is 0.153.

As to C14U C27U, the self-cleavage came to 0.896.

Consider G13A C21U, for which the self-cleavage amounted to 0.0803.

In the case of C14G C15A, the self-cleavage was 0.644.

G7A G47A: the self-cleavage amounted to 0.271.

For the variant C3G U31C, the self-cleavage was found to be 0.347.

A2U G36C: the self-cleavage came to 0.129.

On to U6C A40C, for which the self-cleavage is 0.11.

Consider U6G G48U, for which the self-cleavage was determined as 0.308.

In the case of G41U G44A, the self-cleavage is 0.403.

With A1C U31C, the self-cleavage was 0.141.

G17A G29C: the self-cleavage was determined as 0.222.

As for A10U A40G, the self-cleavage was 0.191.

For A35G G43A, the self-cleavage was found to be 0.152.

Regarding G36A G47U, the self-cleavage was 0.76.

For U12A A33U, the self-cleavage is 1.14.

With A4C G41U, the self-cleavage was 0.0895.

For C27A G43C, the self-cleavage came out at 0.136.

In the case of A4G A22G, the self-cleavage was 0.0987.

With A1U C14G, the self-cleavage stood at 0.0363.

C3G G43A: the self-cleavage was 0.12.

With C15A C21U, the self-cleavage was found to be 0.0997.

For C20U G42A, the self-cleavage worked out at 0.935.

Regarding C20G G36A, the self-cleavage came out at 0.0839.

Turning to A11C G44C, the self-cleavage came to 0.889.

Consider A33C U37A, for which the self-cleavage came out at 0.447.

Regarding A2C A4U, the self-cleavage stood at 0.0426.

Consider U6G C19G, for which the self-cleavage is 0.

As for G16A A22C, the self-cleavage amounted to 0.941.

As for A10G A11U, the self-cleavage stood at 1.09.

For C9U C26U, the self-cleavage turned out to be 0.086.

Consider A22G A35U, for which the self-cleavage turned out to be 0.313.

Regarding A22G A35C, the self-cleavage is 0.195.

For the variant G13U A22G, the self-cleavage stood at 0.098.

In the case of A10G A34G, the self-cleavage was 0.888.

With C19G C25G, the self-cleavage was found to be 0.124.

As to U6A G16C, the self-cleavage was determined as 0.135.

For the variant A33C G47C, the self-cleavage turned out to be 0.274.

On to G16U G41U, for which the self-cleavage came to 0.35.

Turning to C26G G43A, the self-cleavage stood at 0.128.

Take A2C G41U: the self-cleavage worked out at 0.0822.

For A34G U37G, the self-cleavage came to 0.314.

On to A4C A35C, for which the self-cleavage turned out to be 0.301.

As for A32G U37A, the self-cleavage was 0.752.

Take C20G G29A: the self-cleavage was determined as 0.189.

Regarding C5U G36C, the self-cleavage is 0.785.

Consider U12A U18A, for which the self-cleavage is 0.643.

Take C5G U37C: the self-cleavage was 0.14.

Take A23C G43C: the self-cleavage amounted to 0.123.

Regarding A1U G17C, the self-cleavage turned out to be 0.055.

On to A1U G17U, for which the self-cleavage came to 0.0683.

For the variant A2U C5G, the self-cleavage was found to be 0.172.

Take G16A C25G: the self-cleavage worked out at 0.298.

With G7A G24C, the self-cleavage was 0.0973.

In the case of A23U G39A, the self-cleavage came to 0.061.

In the case of A4C A22U, the self-cleavage amounted to 0.0826.

As to C5G C15U, the self-cleavage came out at 0.467.

With A2G G38A, the self-cleavage came to 0.448.

As to G7C C15U, the self-cleavage worked out at 0.0844.

Turning to A23C G42U, the self-cleavage was 0.0925.

In the case of A22C C27A, the self-cleavage came to 0.768.

Take G7U C27A: the self-cleavage was 0.0728.

For C8G C25U, the self-cleavage was found to be 0.112.

Consider G36U G44C, for which the self-cleavage was determined as 0.372.

Consider C14A C19A, for which the self-cleavage is 0.366.

Regarding A23G A33C, the self-cleavage came out at 0.187.

Regarding A1C C27U, the self-cleavage stood at 0.138.

Take G7U C14G: the self-cleavage came out at 0.0477.

Consider G16U A40U, for which the self-cleavage was found to be 0.137.

On to A1C C21A, for which the self-cleavage turned out to be 0.154.

Turning to A11U U12C, the self-cleavage was 0.849.

As to A2U U18A, the self-cleavage worked out at 0.0781.

For U6G A35G, the self-cleavage turned out to be 0.281.

C8G G43U: the self-cleavage was 0.148.

C14A C27G: the self-cleavage is 0.0739.

For the variant C20A G41C, the self-cleavage came to 0.0888.

In the case of A22C C26U, the self-cleavage amounted to 0.631.

Regarding A32G G41A, the self-cleavage is 0.518.

Take A32G G41C: the self-cleavage turned out to be 0.211.

As to C26G G44U, the self-cleavage is 0.184.

Regarding A2U A22G, the self-cleavage turned out to be 0.0815.

In the case of C5U G48U, the self-cleavage is 0.82.

As to A1G C8A, the self-cleavage turned out to be 0.22.

Consider A4G G43A, for which the self-cleavage came out at 0.165.

Turning to G43C C46U, the self-cleavage was 0.214.

For A33U G39U, the self-cleavage is 0.162.

In the case of G16A U37C, the self-cleavage amounted to 0.335.

For the variant G38C A40C, the self-cleavage was found to be 0.134.

On to C15U G47U, for which the self-cleavage stood at 0.8.

As for C14A C21G, the self-cleavage came to 0.1.

Consider C26U G28A, for which the self-cleavage was 0.106.

As for A30U G44A, the self-cleavage turned out to be 0.971.

Regarding A23U A40U, the self-cleavage came out at 0.0967.

For the variant C21A G36C, the self-cleavage amounted to 0.109.

For C5U G7A, the self-cleavage worked out at 0.147.

For C5U G7C, the self-cleavage turned out to be 0.0595.

Regarding A23U U37G, the self-cleavage worked out at 0.0831.

For C20U G45U, the self-cleavage is 0.802.

Regarding C9G G28U, the self-cleavage turned out to be 0.428.
